In patent US20220323445A1, “REDUCING IMMUNOGENICITY TO PEGLOTICASE” (Horizon Therapeutics Ireland DAC, priority 2020, published 2022):

Test system: serum uric acid (sUA)
Assay: Serum uric acid (sUA) levels and sUA responders, open-label study of pegloticase with MTX (NCT03635957)
Format: in vivo, human
Protocol: The primary objective is to estimate the response rate during Month 6 (Weeks 20, 22, and 24), as measured by the sustained normalization of serum uric acid (SUA) to <6 mg/dL for at least 80% of the time during Month 6 in subjects receiving KXX with MTX.
The primary efficacy outcome endpoint is the sustained normalization of SUA to <6 mg/dL for at least 80% of the time during month 6 (weeks 20, 22, and 24) in subjects receiving KXX with MTX. This is slightly below the urate solubility threshold and this threshold has been the accepted standard for nearly all modern gout trials. Participants who achieve this endpoint were classified as “responders.” Serum uric acid (SUA) responders may also be defined as participants achieving and maintaining SUA <6 mg/dL for at least 80% of the time during Month 6 (Weeks 20, 22, and 24).
Blood samples may be collected prior to each pegloticase infusion for measurement of SUA levels using the Beckman Coulter AU System Uric Acid procedure. Participants were declared “non-responders” if there were SUA measures >6 mg/dL at 2 consecutive study visits beginning with the week 2 visit. […] If the SUA goal is not maintained before or at the 12-week mark, it was assumed that the participant had developed clinically relevant anti-pegloticase antibody and they received no further infusions. This assumption and subsequent discontinuation of pegloticase was consistent with the protocol of large phase III randomized controlled trials and the product label. A formal stopping rule was 2 occasions of SUA levels of greater than 6 mg/dL.
Clinical Chemistry—Blood samples were collected prior to each pegloticase infusion for measurement of SUA levels (primary efficacy parameter) using the Beckman Coulter AU System Uric Acid procedure. In this procedure uric acid is converted to hydrogen peroxide. Hydrogen peroxide reacts with reagent to produce a chromophore which is read bichromatically at 660/800 nm. The amount of dye formed is proportional to the uric acid concentration in the sample.
Serum samples for measurement of SUA levels were collected at the Screening Visit, the Week −4 Visit (prior to the first dose of MTX), and the Week −2 Visit during the MTX Run-in Period; within 48 hours prior to each pegloticase infusion and after the end of each pegloticase infusion prior to discharge from the site during the Pegloticase+IMM Period; at the non-infusion Week 52/End of Study/Early Termination Visits and at the Post Treatment 3 and 6 Month Follow-up Visits. Additional serum samples for SUA levels were collected at optional non-infusion (Frequent Sampling) Visits at Weeks 1 and 7. […] Subjects with SUA level >6 mg/dL at 2 consecutive visits beginning at Week 2 visit discontinued treatment, completed the End of Pegloticase Infusion Visit procedures within 2 weeks and continued the subject visits according to the protocol (without treatment).
Efficacy analyses were performed using the modified intention-to-treat (mITT) population, defined as all enrolled subjects who received ≥1 dose of pegloticase. The proportion of Month 6 responders was summarized, along with a 95% confidence interval for the proportion. The proportion of Month 3 and overall (Months 3 and 6 combined) responders was analyzed similarly.
A subject was declared a non-responder if the subject had SUA level >6 mg/dL at 2 consecutive study visits beginning with the Week 2 Visit. In addition, a subject who withdraws from study treatment for any reason after the first dose of pegloticase in the KXX+MTX Period and prior to Month 6 (for the primary endpoint) or Month 3 (for the secondary endpoint) was considered a non-responder if SUA values were not collected at the planned time points.
Patients were administered oral MTX (15 mg/week) and folate (1 mg/day) 4 weeks prior to the first pegloticase infusion (Day 1) and throughout the pegloticase treatment period. […]

[1] = Day 1 - Post-Infusion, Month 6 sUA Non-Responders
[2] = Day 1 - Post-Infusion, Month 6 sUA Responders
[3] = Day 1 - Post-Infusion, mITT, n=11
[4] = Early Termination Visit, Month 6 sUA Non-Responders
[5] = Early Termination Visit, mITT, n=3
[6] = End of Pegloticase Infusions Visit, Month 6 sUA Responders
[7] = End of Pegloticase Infusions Visit, mITT, n=2
[8] = Week 1, Month 6 sUA Non-Responders
[9] = Week 2 - Post-Infusion, Month 6 sUA Non-Responders
[10] = Week 2 - Post-Infusion, Month 6 sUA Responders
[11] = Week 2 - Post-Infusion, mITT, n=14

B1: pegloticase (protein)
chain: TYKKNDEVEFVRTGYGKDMIKVLHIQRDGKYHSIKEVATTVQLTLSSKKDYLHGDNSDVIPTDTIKNTVNVLAKFKGIKSIETFAVTICEHFLSSFKHVIRAQVYVEEVPWKRFEKNGVKHVHAFIYTPTGTHFCEVEQIRNGPPVIHSGIKDLKVLKTTQSGFEGFIKDQFTTLPEVKDRCFATQVYCKWRYHQGRDVDFEATWDTVRSIVLQKFAGPYDKGEYSPSVQKTLYDIQVLTLGQVPEIEDMEISLPNIHYLNIDMSKMGLINKEEVLLPLDNPYGKITGTVKRKLSSRL
modifications: monomethoxy PEG conjugated; Krystexxa Sequence
notes: covalent conjugate of uricase produced by a genetically modified strain of Escherichia coli and monomethoxypoly (ethylene glycol)
- sUA < 6 mg/dL, % [1]: (100%)
- sUA Change from Baseline, Mean [1]: -6.60 mg/dL
- sUA Change from Baseline, Median [1]: -7.20 mg/dL
- sUA Observed, Mean [1]: 2.13 mg/dL
- sUA Observed, Median [1]: 1.20 mg/dL
- sUA < 6 mg/dL, % [2]: (100%)
- sUA Change from Baseline, Mean [2]: -7.55 mg/dL
- sUA Change from Baseline, Median [2]: -7.50 mg/dL
- sUA Observed, Mean [2]: 0.83 mg/dL
- sUA Observed, Median [2]: 0.30 mg/dL
- sUA < 6 mg/dL, n (%) [3]: 11 (100%)
- sUA Change from Baseline, Mean (SD) [3]: −7.29 (2.254) mg/dL
- sUA Change from Baseline, Median [3]: -7.30 mg/dL
- sUA Observed, Mean (SD) [3]: 1.18 (1.417) mg/dL
- sUA Observed, Median [3]: 0.30 mg/dL
- sUA Change from Baseline, Mean [4]: -0.57 mg/dL
- sUA Change from Baseline, Median [4]: -0.20 mg/dL
- sUA Observed, Mean [4]: 8.17 mg/dL
- sUA Observed, Median [4]: 8.20 mg/dL
- sUA < 6 mg/dL, n (%) [5]: 0%
- sUA Change from Baseline, Mean (SD) [5]: −0.57 (0.635) mg/dL
- sUA Change from Baseline, Median [5]: -0.20 mg/dL
- sUA Observed, Mean (SD) [5]: 8.17 (0.058) mg/dL
- sUA Observed, Median [5]: 8.20 mg/dL
- sUA < 6 mg/dL, % [6]: (100%)
- sUA Change from Baseline, Mean [6]: -8.50 mg/dL
- sUA Change from Baseline, Median [6]: -8.50 mg/dL
- sUA Observed, Mean [6]: 0.30 mg/dL
- sUA Observed, Median [6]: 0.30 mg/dL
- sUA < 6 mg/dL, n (%) [7]: 2 (100%)
- sUA Change from Baseline, Mean (SD) [7]: −8.50 (1.556) mg/dL
- sUA Change from Baseline, Median [7]: -8.50 mg/dL
- sUA Observed, Mean (SD) [7]: 0.30 (0.000) mg/dL
- sUA Observed, Median [7]: 0.30 mg/dL
- sUA < 6 mg/dL, % [8]: (100%)
- sUA Change from Baseline, Mean [8]: -8.10 mg/dL
- sUA Change from Baseline, Median [8]: -8.10 mg/dL
- sUA Observed, Mean [8]: 0.30 mg/dL
- sUA Observed, Median [8]: 0.30 mg/dL
- sUA < 6 mg/dL, % (Week 1, Month 6 sUA Responders): (100%)
- sUA Change from Baseline, Mean (Week 1, Month 6 sUA Responders): -6.88 mg/dL
- sUA Change from Baseline, Median (Week 1, Month 6 sUA Responders): -7.15 mg/dL
- sUA Observed, Mean (Week 1, Month 6 sUA Responders): 0.30 mg/dL
- sUA Observed, Median (Week 1, Month 6 sUA Responders): 0.30 mg/dL
- sUA < 6 mg/dL, n (%) (Week 1, mITT, n=6): 6 (100%)
- sUA Change from Baseline, Mean (SD) (Week 1, mITT, n=6): −7.28 (1.556) mg/dL
- sUA Change from Baseline, Median (Week 1, mITT, n=6): -7.75 mg/dL
- sUA Observed, Mean (SD) (Week 1, mITT, n=6): 0.30 (0.000) mg/dL
- sUA Observed, Median (Week 1, mITT, n=6): 0.30 mg/dL
- sUA < 6 mg/dL, % [9]: (100%)
- sUA Change from Baseline, Mean [9]: -8.43 mg/dL
- sUA Change from Baseline, Median [9]: -8.10 mg/dL
- sUA Observed, Mean [9]: 0.30 mg/dL
- sUA Observed, Median [9]: 0.30 mg/dL
- sUA < 6 mg/dL, % [10]: (100%)
- sUA Change from Baseline, Mean [10]: -8.97 mg/dL
- sUA Change from Baseline, Median [10]: -8.80 mg/dL
- sUA Observed, Mean [10]: 0.30 mg/dL
- sUA Observed, Median [10]: 0.30 mg/dL
- sUA < 6 mg/dL, n (%) [11]: 14 (100%)
- sUA Change from Baseline, Mean (SD) [11]: −8.86 (2.486) mg/dL
- sUA Change from Baseline, Median [11]: -8.70 mg/dL
- sUA Observed, Mean (SD) [11]: 0.30 (0.000) mg/dL
- sUA Observed, Median [11]: 0.30 mg/dL
